Test results taken from the supplement of paper PMC7125110.
± gives the standard error. For part of these data: Variants at the floor of the assay were thinned out.

B1: glmS ribozyme (parent)
chain: AUAAAAGCGCCAGAACUACAGAAAUGUAGUUGACGAGGAGGAGGUUUAUCGAAUUUUCGGCGGAUGCCUCCAAA

What was measured:
Details in all cases: with glucosamine-6-phosphate
[1] = variants of: B1; assay: kcat; higher = faster cleavage; RNA array
Outline: (§1)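 Tiles bearing barcoded ribozyme variants, transcribed in situ by E. coli RNA polymerase on sequenced MiSeq chips, were imaged over ~14 h at 37 °C using a hybridised Cy3 probe. Glucosamine-6-phosphate was supplied at 40 μM to 10 mM in HEPES/KCl/Mg(OAc)2 buffer. kobs came from one- or two-exponential decay fits to normalised per-tile medians, and weighted Michaelis–Menten fits then provided kcat and KM.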

[2] = variants of: B1; assay: self-cleavage kobs at 160 uM GlcN6P; higher = faster cleavage; RNA array
Outline: as §1

[3] = variants of: B1; assay: self-cleavage kobs at 640 uM GlcN6P; higher = faster cleavage; RNA array
Outline: as §1

[4] = variants of: B1; assay: self-cleavage kobs at 2500 uM GlcN6P; higher = faster cleavage; RNA array
Outline: as §1

[5] = variants of: B1; assay: self-cleavage kobs at 10000 uM GlcN6P; higher = faster cleavage; RNA array
Outline: as §1

[6] = variants of: B1; assay: KM; higher = weaker cofactor use; RNA array
Outline: as §1

[7] = variants of: B1; assay: self-cleavage kobs at 40 uM GlcN6P; higher = faster cleavage; RNA array
Outline: as §1

Variant	kcat [1] [s⁻¹]	self-cleavage kobs at 160 uM GlcN6P [2] [s⁻¹]	self-cleavage kobs at 640 uM GlcN6P [3] [s⁻¹]	self-cleavage kobs at 2500 uM GlcN6P [4] [s⁻¹]	self-cleavage kobs at 10000 uM GlcN6P [5] [s⁻¹]	KM [6] [µM]	self-cleavage kobs at 40 uM GlcN6P [7] [s⁻¹]
A14C C71G	0.000465 ± 0.00016	3.11e-05 ± 1e-05	0.000228 ± 7.6e-05	0.00017 ± 2.9e-05	0.00038 ± 4.5e-05		
A15C A53U	0.00401 ± 0.00066	0.000395 ± 9e-05	0.00119 ± 0.00025	0.00184 ± 0.00036	0.00391 ± 0.00049	1690 ± 400	9.37e-05 ± 1.2e-05
A14U C58U	0.000114 ± 1.5e-05			5.89e-05 ± 1.1e-05	9.01e-05 ± 1e-05	2600 ± 960	
A14U C58G	0.000104 ± 9.8e-06		3.48e-05 ± 1.2e-05	4.98e-05 ± 1.1e-05	8.81e-05 ± 7.2e-06	1960 ± 710	
G13U G66U	3.6e-05 ± 2.5e-06				2.65e-05 ± 1.1e-05	3580 ± 630	
A14C C58G	0.000165 ± 6.6e-05		3.92e-05 ± 1e-05	4.23e-05 ± 8.3e-06	0.000108 ± 1.2e-05		
A14G G32C	0.000222 ± 9e-06		5.72e-05 ± 1.5e-05	0.000115 ± 4.1e-05	0.000188 ± 2.8e-05	1900 ± 190	
A14U G29C U46G C70A	2.85e-05 ± 1.1e-05						
A14U C71A	0.00123 ± 0.0004	8.35e-05 ± 1.2e-05	0.00027 ± 4.3e-05	0.000647 ± 8.4e-05	0.00114 ± 0.00019	2040 ± 970	5.26e-05 ± 9.6e-06
A14U U49G	0.000127 ± 2.5e-06		2.09e-05 ± 1e-05	5.86e-05 ± 2.3e-05	9.65e-05 ± 9.5e-06	3130 ± 200	
A14U A39U A52G	0.00264 ± 0.00045			5.72e-05 ± 1.2e-05	0.000214 ± 3.7e-05		
A14C U56C	0.000932 ± 0.00029	3.09e-05 ± 1.5e-05	0.00014 ± 1.8e-05	0.000275 ± 4.5e-05	0.000754 ± 0.00012	4280 ± 2000	
G13U U55C	0.000878 ± 0.00013	2.79e-05 ± 1.3e-05	0.000149 ± 3.4e-05	0.000304 ± 5.4e-05	0.000642 ± 7e-05	3970 ± 1200	
G13U U55A	0.00182 ± 0.00037	8.82e-05 ± 1.7e-05	0.000214 ± 4e-05	0.000853 ± 0.00015	0.00135 ± 0.00013	3540 ± 1200	3.28e-05 ± 7.2e-06
G13U G41U	7.91e-05 ± 6.7e-06			3.07e-05 ± 8.6e-06	5.57e-05 ± 8.2e-06	4150 ± 890	
G13U G41C	0.000161 ± 1.8e-05	< 1e-05	< 1e-05				< 1e-05

Variant	kcat [1] [s⁻¹]	self-cleavage kobs at 160 uM GlcN6P [2] [s⁻¹]	self-cleavage kobs at 640 uM GlcN6P [3] [s⁻¹]	self-cleavage kobs at 2500 uM GlcN6P [4] [s⁻¹]	self-cleavage kobs at 10000 uM GlcN6P [5] [s⁻¹]	KM [6] [µM]	self-cleavage kobs at 40 uM GlcN6P [7] [s⁻¹]
A14U G37A	0.000902 ± 0.00022	6.22e-05 ± 1.3e-05	0.00012 ± 1.5e-05	0.00043 ± 5.9e-05	0.000648 ± 7.7e-05	3590 ± 1400	
A14G U31G	0.00752 ± 0.0003	0.000539 ± 9.8e-05	0.00175 ± 0.00031	0.0039 ± 0.00067	0.00635 ± 0.00094	2120 ± 140	
A14U G43A	4.42e-05 ± 1.9e-05						
A14U G40U	0.00162 ± 0.0004	6.75e-05 ± 1.2e-05	0.000205 ± 3e-05	0.000535 ± 7.1e-05	0.00123 ± 0.00015	4230 ± 1500	3.43e-05 ± 1.2e-05
A14U A36C C50U	1.43e-05 ± 5.6e-06						
A14C U30G	0.00408 ± 0.001	0.000107 ± 2e-05	0.000417 ± 7.1e-05	0.00127 ± 0.00034	0.00267 ± 0.00036	5380 ± 1800	5.32e-05 ± 1.3e-05
A15C A42U	1.58e-05 ± 3.7e-06	< 1e-05					< 1e-05
A14G G60C	1.11e-05 ± 3.4e-06						
G13U U56C	0.000107 ± 3.8e-05		9.36e-05 ± 1.9e-05	7.63e-05 ± 1.5e-05	0.000214 ± 4.4e-05		< 1e-05
A14G U57C	0.000646 ± 0.00012	3.29e-05 ± 1.4e-05	0.000142 ± 1.8e-05	0.000276 ± 4.7e-05	0.000577 ± 0.0001	2530 ± 740	
A14G U31C C71A	0.00296 ± 0.00085	0.000251 ± 7.7e-05		0.00227 ± 0.00096	0.00241 ± 0.00085	1430 ± 590	0.000143 ± 6.1e-05
A14G A15C	0.0193 ± 0.0062	0.00312 ± 0.00073	0.0155 ± 0.0029	0.012 ± 0.0039	0.0199 ± 0.0053	584 ± 270	0.00141 ± 0.00023
A14U C50A	1.95e-05 ± 4.6e-06						
A14G G51A	1.48e-05 ± 1.8e-06						
A14G U56A	0.121 ± 0.022	0.00984 ± 0.0021	0.0275 ± 0.0058	0.0642 ± 0.024	0.126 ± 0.053	1930 ± 400	0.00249 ± 0.00036
A14U C16A	0.000551 ± 6.3e-05	5.14e-05 ± 1.1e-05	0.000126 ± 1.9e-05	0.000363 ± 4.8e-05	0.000451 ± 5.1e-05	1840 ± 400	
